Assay results as given in patent US20160017022A1.

Biological target: EGFP-MAL stably expressed on CHO cells
Assay: FACS, CHO cells stably expressing EGFP-MAL

“fluorescently labeled ETX (ETX^Alexa-647) (from UniProt Q02307 33-328) (ligand)” showed a double labeling of EGFP-MAL expressing cells of 100%.
